Results on four molecules are retold here after US7267978, “Chimeric transcriptional regulatory element compositions and methods for increasing prostate-targeted gene expression” (The Regents of the University of California).

Series [1] deals with Androgen receptor full length (fAR) (UniProt P10275). Put plainly: footprint. The following applies: 60% protection at 14 nM; cooperative, within enhancer fragment.
Series [2] addresses Androgen receptor DNA-binding domain (ARDBD, aa 549-650) (Homo sapiens) (UniProt P10275). Put plainly: footprint. The following applies: 75% occupancy at 1.4 uM.
In series [3] the target is T1, Androgen receptor DNA-binding domain (ARDBD, aa 549-650) (Homo sapiens, UniProt P10275 P10275:550-651). The experiment in a line: affinity column; retained at 0.5 M KCl, eluted at 0.8 M KCl. The following applies: tags: N-terminal His6, C-terminal heart muscle kinase site; E. coli; chain copies: 2; label: biotin. Here is the method: The *Escherichia coli* strain BL21(DE3) was transformed with pET11dHis_6ARDBD. 0.1 liter of cells was grown to an $A600$ of 0.6 and induced with 0.5 mM isopropyl-1-thio-β-D-galactopyranoside and 10 μM ZnCl_2 for 3 h. After harvesting, cells were resuspended in 5 ml of Buffer A (20 mM HEPES, pH 7.9, 20% glycerol, 10 μM ZnCl_2, 0.5 mM phenylmethylsulfonyl fluoride) containing 0.1 M KCl and lysed by sonication. The supernatant was incubated with 1.5 ml of Ni-NTA-agarose (Qiagen) resin in batch, rocked gently for 30 min at 4° C., and then loaded on to a small Bio-Rad Econo-column. After successively washing the resin with 15 ml of Buffer A containing 0.1 M KCl, and 15 ml of Buffer A containing 0.1 M KCl and 20 mM imidazole, ARDBD was eluted with Buffer A containing 0.1 M KCl and 150 mM imidazole. […]

In series [4] the target is T1, Androgen receptor DNA-binding domain …. Put plainly: footprint; lower affinity than ARE III. The following applies: tags: N-terminal His6, C-terminal heart muscle kinase site; E. coli; chain copies: 2. The procedure: The binding reactions for DNase I footprinting were as described previously (Chi et al., 1995). Indicated amounts of recombinant AR DNA binding domain (ARDBD), FLAG-tagged AR, and crude nuclear extracts from f-LNCaP cells were incubated in 13 μl of buffer containing 12.5 mM HEPES, pH 7.9, 12.5% glycerol, 5 mM MgCl_2, 70 mM KCl, 0.2 mM EDTA, 60 mM mercaptoethanol, 0.5 mg/ml bovine serum albumin, and 200 ng of poly(dG-dC). After 45 min at 30° C., DNase I was added to the reactions. The cleavage reactions were terminated after 1 min by addition of 100 μl of stop buffer containing 400 mM sodium acetate, pH 5.2, 0.2% SDS, 10 mM EDTA, 50 μg/ml yeast tRNA, and 100 μg/ml proteinase K. The mixtures were incubated at 50° C. for 15 min, extracted with phenol/chloroform, and the products precipitated with ethanol. Precipitates were dissolved in formamide loading buffer and analyzed on 8% polyacrylamide/urea sequencing gels. The cleavage ladders were visualized by exposure to XAR-5 film or by PhosphorImager analysis.
A ^32P-labeled PCR™ fragment from −4309 to −4011 of the enhancer was subjected to DNase I footprinting studies. […] A weak footprint was also noticed below site V that had not been detected with ARDBD in earlier experiments.

Bounds are passed on as bounds.

Chain of Androgen receptor full length (fAR) (P10275 whole entry, the tested form may be a part): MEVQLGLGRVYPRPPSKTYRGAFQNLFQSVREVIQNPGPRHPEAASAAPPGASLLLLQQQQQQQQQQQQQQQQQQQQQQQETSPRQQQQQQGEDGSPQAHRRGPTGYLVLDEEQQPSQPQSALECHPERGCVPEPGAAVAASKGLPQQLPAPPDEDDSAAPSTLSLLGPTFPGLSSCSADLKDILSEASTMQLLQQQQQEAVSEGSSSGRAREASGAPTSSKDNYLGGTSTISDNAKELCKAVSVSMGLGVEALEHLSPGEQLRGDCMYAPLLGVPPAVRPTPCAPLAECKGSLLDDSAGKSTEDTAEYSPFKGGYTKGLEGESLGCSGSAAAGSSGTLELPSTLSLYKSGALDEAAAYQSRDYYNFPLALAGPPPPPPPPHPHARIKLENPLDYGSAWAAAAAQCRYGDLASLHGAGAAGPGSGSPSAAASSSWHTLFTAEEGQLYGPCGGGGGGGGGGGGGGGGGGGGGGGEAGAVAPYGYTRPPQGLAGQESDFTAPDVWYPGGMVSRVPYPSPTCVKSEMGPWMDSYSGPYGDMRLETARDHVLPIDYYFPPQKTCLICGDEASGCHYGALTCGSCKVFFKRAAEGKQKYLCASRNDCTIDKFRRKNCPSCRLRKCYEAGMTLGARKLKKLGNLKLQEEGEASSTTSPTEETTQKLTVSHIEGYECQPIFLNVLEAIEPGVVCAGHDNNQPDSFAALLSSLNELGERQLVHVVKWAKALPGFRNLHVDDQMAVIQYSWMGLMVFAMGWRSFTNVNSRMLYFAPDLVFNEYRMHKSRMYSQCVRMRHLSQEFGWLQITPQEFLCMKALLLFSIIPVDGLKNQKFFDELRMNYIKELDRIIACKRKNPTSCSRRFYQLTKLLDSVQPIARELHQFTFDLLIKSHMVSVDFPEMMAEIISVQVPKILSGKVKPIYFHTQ
T1 sequence (P10275 550-651, one chain of several): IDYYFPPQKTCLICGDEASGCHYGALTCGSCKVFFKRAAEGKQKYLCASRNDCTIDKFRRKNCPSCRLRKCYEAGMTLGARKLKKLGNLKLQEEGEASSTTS
Chain of Androgen receptor DNA-binding domain (ARDBD, aa 549-650) (Homo sapiens) (P10275 550-651): as the sequence (P10275 550-651, one chain of several) above

Turning to PSA enhancer ARE IV, the K half in series [1] is less than 14 nM.

Consider PSA enhancer ARE V, for which the K half in series [2] is less than 1400 nM; in series [1], less than 14 nM.

B1: biotinylated ARE affinity oligonucleotide (dsDNA)
DNA 1: TTTCCTTGCAGTACAGCATGTTCTAGC
DNA 2: GCTAGAACATGCTGTACTGCAAGGAAA
As to B1, the binding result in series [3] was “binds”.

B2: PSA enhancer ARE VI (dsDNA)
DNA 1: GGATGCTGTGCACAC
DNA 2: GTGTGCACAGCATCC
As for B2, the binding result in series [4] is “binds”.
